Measurements as given in PMC7367173.
Positions count from the first letter of the chain named.

T1: ProQ NTD (FinO domain) (Escherichia coli, UniProt P45577 1-130)
T1 sequence: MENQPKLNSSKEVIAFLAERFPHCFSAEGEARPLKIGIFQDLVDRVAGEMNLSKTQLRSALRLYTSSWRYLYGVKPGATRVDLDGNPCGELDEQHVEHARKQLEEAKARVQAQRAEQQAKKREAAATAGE

T2: ProQ full-length (Escherichia coli, UniProt P45577 1-232)
T2 sequence: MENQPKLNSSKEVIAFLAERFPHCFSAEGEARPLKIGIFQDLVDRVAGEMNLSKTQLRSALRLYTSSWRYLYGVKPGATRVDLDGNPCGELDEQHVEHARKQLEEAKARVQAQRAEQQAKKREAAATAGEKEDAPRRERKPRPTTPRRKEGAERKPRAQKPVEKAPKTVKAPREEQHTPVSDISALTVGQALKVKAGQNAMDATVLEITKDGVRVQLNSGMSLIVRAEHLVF

B1: cspE81-3' (structured_RNA)
RNA: GGCCCUUCUGCUGCAAACGUAAUCGCUCUGUAAGAUACGUCAGCAAGAAUUCAAAACCCGCUUAAUCAGCGGGUUUUUUUU
B2: cspE81-3'-AtoU (structured_RNA)
RNA: B1 RNA with A53U, A54U, A55U, A56U
B3: malM-3'-AA (structured_RNA)
RNA: GCUUUAUCAGCAGUGUAAAAGGCAAGGGGUAAUUACGCCCCACAGUGCUGAUUUUGCAACAACUGGUAAGUCUCCUGGCAAACCUUUUUUU
B4: malM-3'-UU (structured_RNA)
RNA: B3 RNA with A68U, A69U, A80U, A81U
B5: malM-3' (structured_RNA)
RNA: B3 RNA with A68G, A69C, A80G, A81C
B6: malM-3'-AtoU (structured_RNA)
RNA: B3 RNA with A58U, A59U, A61U, A62U, A68G, A69C, A80G, A81C
B7: cspE-3' (structured_RNA)
RNA: GUAAGAUACGUCAGCAAGAAUUCAAAACCCGCUUAAUCAGCGGGUUUUUUUU
B8: cspE-3'-AtoU (structured_RNA)
RNA: B7 RNA with A24U, A25U, A26U, A27U
B9: malM-3'-bulge (structured_RNA)
RNA: GCUUUAUCAGCAGUGUAAAAGGCAAGGGGUAAUUACGCCCCACAGUGCUGAUUUUGCAACAACUGGUGAAACGUCUCCUGGCGCACCUUUUUUU
B10: lpp-5'-mut (structured_RNA)
RNA: GCUACAUGGAGAUUAACUCAAUCUAGAGGGUAUUAAUAAUGAAAGCUACUAAACUGGUACUGGGCGCGGUAAUCCCGCGCCCUUUU
B11: hupB-3'-RtoU (structured_RNA)
RNA: GGUAAACUAAGCGUUGUCCCCAGUGGGGAUGUGACGAAGUUCUUUGGCGCAUCUACUGAUGUGCCUUUUUU
B12: malM-3'-4U (structured_RNA)
RNA: GCUUUAUCAGCAGUGUAAAAGGCAAGGGGUAAUUACGCCCCACAGUGCUGAUUUUGCAACAACUGGUGCGUCUCCUGGCGCACCUUUU
B13: hupA-5'-mut (structured_RNA)
RNA: GCGAAAAAAAGUGGCUAUCGGUGCGUGUAUGCAGGAGAGUGCUAUUCUGGCAUUUCCGUCGCACUCGAUGCUUAGCAAGCGAUAAACACAUCGUAAGGAUAACUUACGUUUU
B14: infA-3'-AtoU (structured_RNA)
RNA: GUCGCUGAUUGUUUUACCGCCUGAUGGGCGAAGAGAAAGAACGAGUUUUUGGUCGGUUUAACCGGCCUUUUUAU
B15: gapA-3'-AtoU (structured_RNA)
RNA: GGACCUGAUCGCUCACAUCUCCAAAUAAGUUGAGAUGACACUGUGAUCUUUUUUGAGCGACUUCGGUCGCUCUUUUUUUU
B16: malM-3'-6U (structured_RNA)
RNA: GCUUUAUCAGCAGUGUAAAAGGCAAGGGGUAAUUACGCCCCACAGUGCUGAUUUUGCAACAACUGGUGCGUCUCCUGGCGCACCUUUUUU
B17: malM-3'-5U (structured_RNA)
RNA: GCUUUAUCAGCAGUGUAAAAGGCAAGGGGUAAUUACGCCCCACAGUGCUGAUUUUGCAACAACUGGUGCGUCUCCUGGCGCACCUUUUU

What was measured:
ProQ NTD (FinO domain) = biological target: T1, ProQ NTD (FinO domain); experiment: EMSA
Hfq = Hfq (Escherichia coli, UniProt P0A6X3 1-102); experiment: filter binding
Sequence of Hfq (P0A6X3 whole entry): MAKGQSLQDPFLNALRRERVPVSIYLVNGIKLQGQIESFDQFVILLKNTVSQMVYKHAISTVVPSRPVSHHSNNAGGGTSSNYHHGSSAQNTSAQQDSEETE

ProQ full-length = biological target: T2, ProQ full-length; experiment: EMSA

Binder	Kd (ProQ NTD (FinO domain)) [nM]	Kd (Hfq) [nM]	Kd (ProQ full-length) [nM]
B1	7.6 ± 4.5	47 ± 11	–
B2	17 ± 4.6	–	–
B3	6.6 ± 1.4	–	–
B4	8.7 ± 2.1	–	–
B5	12 ± 4.8	22 ± 7	12 ± 5.3
B6	5 ± 1.8	–	–
B7	4.5 ± 1.5	–	13 ± 4.5
B8	100 ± 51	1.7 ± 0.88	–
B9	9 ± 2.5	–	–
B10	–	–	3 ± 1.3
B11	29 ± 7.2	1.9 ± 0.75	–
B12	27 ± 11	–	–
B13	16 ± 4.7	–	14 ± 8
B14	32 ± 13	1.2 ± 0.55	–
B15	18	–	–
B16	7.8 ± 1.2	–	–
B17	9.7 ± 1.5	–	–
